In PMC5985294 one finds IC50 of inhibition of NE (5 nM) degradation of fluorogenic elastase substrate V (MeOSuc-Ala-Ala-Pro-Val-AMC), after 30 min pre-incubation and IC50 of inhibition of NE (5 nM) gelatinolytic activity, DQ-gelatin degradation, with 50 µM SB-3CT data, which are given here for 3 substances.

This test addresses Neutrophil elastase (NE), active, human (human) (UniProt P08246).
Sequence of UniProt P08246 (P08246 30-267): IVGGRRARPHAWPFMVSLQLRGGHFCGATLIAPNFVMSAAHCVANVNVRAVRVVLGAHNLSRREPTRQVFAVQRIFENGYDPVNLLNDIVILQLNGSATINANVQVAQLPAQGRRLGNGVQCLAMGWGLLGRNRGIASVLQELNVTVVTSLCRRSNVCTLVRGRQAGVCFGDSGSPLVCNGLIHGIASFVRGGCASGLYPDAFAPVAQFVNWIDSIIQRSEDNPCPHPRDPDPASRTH

“MMP-9-treated SLPI, MMP-9/SLPI molar ratio 1/5 (from UniProt P03973 26-41; P03973 42-96; P03973 97-132)” had an IC50 of inhibition of NE (5 nM) degradation of fluorogenic elastase substrate V (MeOSuc-Ala-Ala-Pro-Val-AMC), after 30 min pre-incubation at 37°C of 76.3 nM and an IC50 of inhibition of NE (5 nM) gelatinolytic activity, DQ-gelatin degradation, with 50 µM SB-3CT of 51.2 nM.

Turning to “MMP-9-treated SLPI, MMP-9/SLPI molar ratio 1/20 (from UniProt P03973 26-96; P03973 97-132)”, the IC50 of inhibition of NE (5 nM) degradation of fluorogenic elastase substrate V (MeOSuc-Ala-Ala-Pro-Val-AMC), after 30 min pre-incubation at 37°C is 28.9 nM and the IC50 of inhibition of NE (5 nM) gelatinolytic activity, DQ-gelatin degradation, with 50 µM SB-3CT worked out at 5.24 nM.

In the case of “Secretory leukocyte peptidase inhibitor (SLPI), intact (from UniProt P03973 26-132) (natural protein)”, the IC50 of inhibition of NE (5 nM) degradation of fluorogenic elastase substrate V (MeOSuc-Ala-Ala-Pro-Val-AMC), after 30 min pre-incubation at 37°C was 8.71 nM and the IC50 of inhibition of NE (5 nM) gelatinolytic activity, DQ-gelatin degradation, with 50 µM SB-3CT came to 0.97 nM.
